The values that follow come from paper PMC4070737 (Cytoskeleton (Hoboken, N.J.), 2013).

The data set concerns the molecule itself. Kind of data set: AUC.

B1: EB1_(248), activated fragment of human EB1 lacking the autoinhibitory tail domain (domain or fragment, UniProt Q15691 1-248, looked up)
chain: MAVNVYSTSVTSDNLSRHDMLAWINESLQLNLTKIEQLCSGAAYCQFMDMLFPGSIALKKVKFQAKLEHEYIQNFKILQAGFKRMGVDKIIPVDKLVKGKFQDNFEFVQWFKKFFDANYDGKDYDPVAARQGQETAVAPSLVAPALNKPKKPLTSSSAAPQRPISTQRTAAAPKAGPGVVRKNPGVGNGDDEAAELMQQVNVLKLTVEDLEKERDFYFGKLRNIELICQENEGENDPVLQRIVDILYA
Turning to B1, the “stoichiometry N” value worked out at 2.
